Measured values reported in the supplement of paper PMC10567573.

B1: FAM189A2 (parent)
chain: PRCDLVDLGEGKICFCCEEFQPAK

Variants of: B1
Assay: protein stability index of a GFP-peptide fusion (GPS, HEK-293T) (PSI 1-6); higher = more stable
Conditions: c terminus: a fixed tail appended
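Note: lentivirally expressed fusions sorted by FACS into six bins by GFP to DsRed ratio, PSI derived from sequencing read proportions per bin multiplied by bin number.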

Q: Which protein stability index does the source give for DRCDLVDLGEGKICFCCEEFQPAK [P1D] here?
A: 2.67

Q: Which protein stability index does the source give for ERCDLVDLGEGKICFCCEEFQPAK [P1E] here?
A: 3.16

Q: For FRCDLVDLGEGKICFCCEEFQPAK [P1F], which protein stability index is on record?
A: 1.85

Q: Which protein stability index does the source give for GRCDLVDLGEGKICFCCEEFQPAK [P1G] here?
A: 3.14

Q: For HRCDLVDLGEGKICFCCEEFQPAK [P1H], which protein stability index is on record?
A: 4.03

Q: Which protein stability index does the source give for IRCDLVDLGEGKICFCCEEFQPAK [P1I] here?
A: 1.78

Q: Which protein stability index does the source give for KRCDLVDLGEGKICFCCEEFQPAK [P1K] here?
A: 3.14

Q: Which protein stability index does the source give for LRCDLVDLGEGKICFCCEEFQPAK [P1L] here?
A: 2.84

Q: Which protein stability index does the source give for MRCDLVDLGEGKICFCCEEFQPAK [P1M] here?
A: 1.86

Q: For NRCDLVDLGEGKICFCCEEFQPAK [P1N], which protein stability index is on record?
A: 3.39

Q: For QRCDLVDLGEGKICFCCEEFQPAK [P1Q], which protein stability index is on record?
A: 2.9

Q: For RRCDLVDLGEGKICFCCEEFQPAK [P1R], which protein stability index is on record?
A: 2.43

Q: With SRCDLVDLGEGKICFCCEEFQPAK [P1S] as the variant, how does the protein stability index read?
A: 3

Q: Which protein stability index does the source give for TRCDLVDLGEGKICFCCEEFQPAK [P1T] here?
A: 2.63

Q: For VRCDLVDLGEGKICFCCEEFQPAK [P1V], which protein stability index is on record?
A: 1.87

Q: Which protein stability index does the source give for WRCDLVDLGEGKICFCCEEFQPAK [P1W] here?
A: 2.43

Q: With YRCDLVDLGEGKICFCCEEFQPAK [P1Y] as the variant, how does the protein stability index read?
A: 1.91

Q: For PACDLVDLGEGKICFCCEEFQPAK [R2A], which protein stability index is on record?
A: 2.83

Q: Which protein stability index does the source give for PCCDLVDLGEGKICFCCEEFQPAK [R2C] here?
A: 3.55

Q: With PDCDLVDLGEGKICFCCEEFQPAK [R2D] as the variant, how does the protein stability index read?
A: 3.72

Q: For PECDLVDLGEGKICFCCEEFQPAK [R2E], which protein stability index is on record?
A: 3.35

Q: For PFCDLVDLGEGKICFCCEEFQPAK [R2F], which protein stability index is on record?
A: 1.65

Q: Which protein stability index does the source give for PGCDLVDLGEGKICFCCEEFQPAK [R2G] here?
A: 3.18

Q: Which protein stability index does the source give for PHCDLVDLGEGKICFCCEEFQPAK [R2H] here?
A: 2.58

Q: Which protein stability index does the source give for PICDLVDLGEGKICFCCEEFQPAK [R2I] here?
A: 2.83

Q: Which protein stability index does the source give for PKCDLVDLGEGKICFCCEEFQPAK [R2K] here?
A: 2.46

Q: For PLCDLVDLGEGKICFCCEEFQPAK [R2L], which protein stability index is on record?
A: 2.8

Q: With PMCDLVDLGEGKICFCCEEFQPAK [R2M] as the variant, how does the protein stability index read?
A: 2.41

Q: With PNCDLVDLGEGKICFCCEEFQPAK [R2N] as the variant, how does the protein stability index read?
A: 2.9

Q: With PPCDLVDLGEGKICFCCEEFQPAK [R2P] as the variant, how does the protein stability index read?
A: 3.8

Q: Which protein stability index does the source give for PQCDLVDLGEGKICFCCEEFQPAK [R2Q] here?
A: 3.13

Q: For PSCDLVDLGEGKICFCCEEFQPAK [R2S], which protein stability index is on record?
A: 3.06

Q: Which protein stability index does the source give for PTCDLVDLGEGKICFCCEEFQPAK [R2T] here?
A: 2.94

Q: Which protein stability index does the source give for PVCDLVDLGEGKICFCCEEFQPAK [R2V] here?
A: 2.17

Q: With PWCDLVDLGEGKICFCCEEFQPAK [R2W] as the variant, how does the protein stability index read?
A: 1.98

Q: With PYCDLVDLGEGKICFCCEEFQPAK [R2Y] as the variant, how does the protein stability index read?
A: 2.25

Q: With PRADLVDLGEGKICFCCEEFQPAK [C3A] as the variant, how does the protein stability index read?
A: 2.01

Q: Which protein stability index does the source give for PRDDLVDLGEGKICFCCEEFQPAK [C3D] here?
A: 3.53

Q: With PREDLVDLGEGKICFCCEEFQPAK [C3E] as the variant, how does the protein stability index read?
A: 3.55

Q: With PRFDLVDLGEGKICFCCEEFQPAK [C3F] as the variant, how does the protein stability index read?
A: 2.22

Q: For PRGDLVDLGEGKICFCCEEFQPAK [C3G], which protein stability index is on record?
A: 2.98

Q: With PRHDLVDLGEGKICFCCEEFQPAK [C3H] as the variant, how does the protein stability index read?
A: 3.31

Q: With PRIDLVDLGEGKICFCCEEFQPAK [C3I] as the variant, how does the protein stability index read?
A: 2.05

Q: With PRKDLVDLGEGKICFCCEEFQPAK [C3K] as the variant, how does the protein stability index read?
A: 3.07

Q: Which protein stability index does the source give for PRLDLVDLGEGKICFCCEEFQPAK [C3L] here?
A: 2.97

Q: Which protein stability index does the source give for PRMDLVDLGEGKICFCCEEFQPAK [C3M] here?
A: 2.3

Q: For PRNDLVDLGEGKICFCCEEFQPAK [C3N], which protein stability index is on record?
A: 2.25

Q: With PRPDLVDLGEGKICFCCEEFQPAK [C3P] as the variant, how does the protein stability index read?
A: 2.89

Q: With PRQDLVDLGEGKICFCCEEFQPAK [C3Q] as the variant, how does the protein stability index read?
A: 3.26

Q: Which protein stability index does the source give for PRRDLVDLGEGKICFCCEEFQPAK [C3R] here?
A: 2.63

Q: With PRSDLVDLGEGKICFCCEEFQPAK [C3S] as the variant, how does the protein stability index read?
A: 2.43

Q: For PRTDLVDLGEGKICFCCEEFQPAK [C3T], which protein stability index is on record?
A: 2.44

Q: For PRVDLVDLGEGKICFCCEEFQPAK [C3V], which protein stability index is on record?
A: 3.33

Q: Which protein stability index does the source give for PRWDLVDLGEGKICFCCEEFQPAK [C3W] here?
A: 2.69

Q: Which protein stability index does the source give for PRYDLVDLGEGKICFCCEEFQPAK [C3Y] here?
A: 1.91

Q: With PRCALVDLGEGKICFCCEEFQPAK [D4A] as the variant, how does the protein stability index read?
A: 2.11

Q: With PRCCLVDLGEGKICFCCEEFQPAK [D4C] as the variant, how does the protein stability index read?
A: 2.74

Q: With PRCELVDLGEGKICFCCEEFQPAK [D4E] as the variant, how does the protein stability index read?
A: 3.27

Q: With PRCFLVDLGEGKICFCCEEFQPAK [D4F] as the variant, how does the protein stability index read?
A: 2.11

Q: For PRCGLVDLGEGKICFCCEEFQPAK [D4G], which protein stability index is on record?
A: 2.26

Q: For PRCHLVDLGEGKICFCCEEFQPAK [D4H], which protein stability index is on record?
A: 2.85

Q: With PRCILVDLGEGKICFCCEEFQPAK [D4I] as the variant, how does the protein stability index read?
A: 1.57

Q: Which protein stability index does the source give for PRCKLVDLGEGKICFCCEEFQPAK [D4K] here?
A: 3.44

Q: For PRCLLVDLGEGKICFCCEEFQPAK [D4L], which protein stability index is on record?
A: 1.67

Q: For PRCMLVDLGEGKICFCCEEFQPAK [D4M], which protein stability index is on record?
A: 2.46

Q: For PRCNLVDLGEGKICFCCEEFQPAK [D4N], which protein stability index is on record?
A: 4.71

Q: With PRCPLVDLGEGKICFCCEEFQPAK [D4P] as the variant, how does the protein stability index read?
A: 3.39

Q: With PRCQLVDLGEGKICFCCEEFQPAK [D4Q] as the variant, how does the protein stability index read?
A: 3.44

Q: Which protein stability index does the source give for PRCRLVDLGEGKICFCCEEFQPAK [D4R] here?
A: 3.56

Q: For PRCSLVDLGEGKICFCCEEFQPAK [D4S], which protein stability index is on record?
A: 2.7

Q: Which protein stability index does the source give for PRCTLVDLGEGKICFCCEEFQPAK [D4T] here?
A: 2.7

Q: For PRCVLVDLGEGKICFCCEEFQPAK [D4V], which protein stability index is on record?
A: 2.5

Q: With PRCWLVDLGEGKICFCCEEFQPAK [D4W] as the variant, how does the protein stability index read?
A: 1.16

Q: For PRCYLVDLGEGKICFCCEEFQPAK [D4Y], which protein stability index is on record?
A: 1.86

Q: Which protein stability index does the source give for PRCDAVDLGEGKICFCCEEFQPAK [L5A] here?
A: 3.98

Q: For PRCDCVDLGEGKICFCCEEFQPAK [L5C], which protein stability index is on record?
A: 4.89

Q: With PRCDDVDLGEGKICFCCEEFQPAK [L5D] as the variant, how does the protein stability index read?
A: 3.95

Q: Which protein stability index does the source give for PRCDEVDLGEGKICFCCEEFQPAK [L5E] here?
A: 3.84

Q: With PRCDFVDLGEGKICFCCEEFQPAK [L5F] as the variant, how does the protein stability index read?
A: 2.6

Q: Which protein stability index does the source give for PRCDGVDLGEGKICFCCEEFQPAK [L5G] here?
A: 4.44

Q: With PRCDHVDLGEGKICFCCEEFQPAK [L5H] as the variant, how does the protein stability index read?
A: 4.84

Q: With PRCDIVDLGEGKICFCCEEFQPAK [L5I] as the variant, how does the protein stability index read?
A: 3.13

Q: For PRCDKVDLGEGKICFCCEEFQPAK [L5K], which protein stability index is on record?
A: 4.28

Q: For PRCDMVDLGEGKICFCCEEFQPAK [L5M], which protein stability index is on record?
A: 2.86

Q: Which protein stability index does the source give for PRCDNVDLGEGKICFCCEEFQPAK [L5N] here?
A: 3.52

Q: For PRCDPVDLGEGKICFCCEEFQPAK [L5P], which protein stability index is on record?
A: 3.39

Q: Which protein stability index does the source give for PRCDQVDLGEGKICFCCEEFQPAK [L5Q] here?
A: 3.73

Q: With PRCDRVDLGEGKICFCCEEFQPAK [L5R] as the variant, how does the protein stability index read?
A: 2.98

Q: With PRCDSVDLGEGKICFCCEEFQPAK [L5S] as the variant, how does the protein stability index read?
A: 3.03

Q: For PRCDTVDLGEGKICFCCEEFQPAK [L5T], which protein stability index is on record?
A: 3.47

Q: For PRCDVVDLGEGKICFCCEEFQPAK [L5V], which protein stability index is on record?
A: 3.02

Q: For PRCDWVDLGEGKICFCCEEFQPAK [L5W], which protein stability index is on record?
A: 2.16

Q: Which protein stability index does the source give for PRCDYVDLGEGKICFCCEEFQPAK [L5Y] here?
A: 2.85

Q: For PRCDLADLGEGKICFCCEEFQPAK [V6A], which protein stability index is on record?
A: 3.49
